According to US20130018176A1, “METHODS OF PRODUCING HYBRIDOMAS AND MONOCLONAL ANTIBODIES AND ANTIBODIES PRODUCED THEREBY” (AMGEN INC., priority 2007, published 2013):

Legend:
rcyno hepcidin = experiment: BIAcore solution equilibrium binding analysis on immobilized antibody; set-up: species or system cyno
Protocol: The following example describes KinExA and BIAcore binding analysis for various antibodies to recombinant cyno hepcidin (rcyno).
B) BIAcore Solution Equilibrium Binding Analysis for mAb R9 and Ab43 Binding to rcynoHepc.
Antibody surface immobilization: antibodies R9 and Ab43 were immobilized on a CM5 chip. The immobilization was performed at a flow rate 10 uL/min of running buffer (DPBS: Dulbecco's Phosphate Buffer Saline1X, GIBCO 14190, with 0.005% BIAcore surfactant P-20) according to manufacturer's instructions. The carboxylated matrix of the sensor chip was first activated with a 100 ul injection of 1:1 mixture of EDC (75 mg/mL N-ethyl-N-(dimethylamine-propyl)carbodiimide in water, from BIAcore) and NHS (11.5 mg/mL N-hydroxysuccinimide in water, from BIAcore). 180 ul of antibodies (−20 ug/ml in 10 mM Na-acetate pH4.0) was injected to immobilize onto the sensor chip at 30 uL/min. […]
BIAcore analysis: Fixed concentrations of rcynoHepc were incubated with various concentrations of mAb R9 and Ab43 at room temperature for several hours before run through the immobilized antibody surfaces. […] The equilibrium dissociation constant (KD) was calculated from nonlinear regression analysis of the competition curves using a one-curve one-site homogeneous binding model (KinEx™ software, Sapidyne Instruments Inc., Boise Id.).

synthetic human hepcidin = target: T1, synthetic human hepcidin (Homo sapiens, UniProt P81172); experiment: Iron-responsive beta-lactamase assay in 293/Fpn/BLA cells; format: cell-based; details: 50 ng/mL synthetic human hepcidin, 2.5 ug/mL ferric citrate, read-out: EC50, decreased intracellular concentration of iron
T1 construct: made in house; host or cells: chemical synthesis (Fmoc solid phase), oxidatively folded
T1 sequence (P81172 60-84 limits assumed): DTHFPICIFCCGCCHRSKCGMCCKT
Protocol: The effect of anti-human hepcidin antibodies on this hepcidin-mediated iron sequestration was evaluated in vitro. […] These 293/Fpn/BLA cells, taken from a 70-80% confluent culture, were plated at 2.8×10^5 cells/mL in DMEM (Invitrogen Cat#11965) 5% FBS (Invitrogen Cat#10099-141) PSQ (Invitrogen Cat#10378-016), 90 uL/well (25,000 cells/well) in BioCoat Poly-D Lysine coated plates (Becton-Dickinson Cat#35-6640) and incubated at 37C with 5% CO2. At the end of the same day, a solution of assay medium (DMEM 5% FBS PSQ) with 100 ug/mL doxycycline was made, 10 uL/well of it added to the plate, and the plate incubated overnight or for at least 20 hours. […] Mixtures were added at 100 uL/well and incubated overnight at 37C, 5% CO2 in a cell culture incubator. Plates were then removed from the incubator and equilibrated to room temperature for 10 minutes before adding 20 uL/well of the prepared Invitrogen GeneBlazer CCF4 A/M development reagent (Invitrogen Kit# K1085) and incubating for 90 minutes in the dark. Development reagent was also added to 16 wells of a control assay plate without cells containing 100 uL assay medium (DMEM 5% FBS PSQ) and incubated for the same time. Blue & Green fluorescence signals were then read on an Envision Multilabel Reader (Perkin-Elmer Inc.) by exciting at 409 nm and reading emissions at 447 nm (blue) and 520 nm (green).

[1] = test system: mature human hepcidin (SEQ ID NO: 9); experiment: Epitope specificity: antibody binding to immobilized hepcidin surface after pre-complex with hepcidin variants (BIAcore)
Protocol: (§1) The epitope specificity of anti-human hepcidin antibodies was evaluated by assessing ability of the antibodies to bind to mature human hepcidin (SEQ ID NO: 9) after pre-complex formation with different hepcidin variants.
(§2) Recombinant hepcidin was immobilized on a CM5 chip according to manufacturer's instructions at a flow rate 10 μL/min of running buffer (DPBS: Dulbecco's Phosphate Buffer Saline1X, GIBCO 14190, with 0.005% BIAcore surfactant P-20). The carboxylated matrix of the sensor chip was first activated with a 100 μL injection of 1:1 mixture of EDC (75 mg/mL N-ethyl-N-(dimethylamine-propyl)carbodiimide in water, from Biacore) and NHS (11.5 mg/mL N-hydroxysuccinimide in water, from Biacore). 180 μL of rhHepc (˜20 μg/ml in 10 mM Na-acetate pH4.0) was injected to immobilize onto the sensor chip at 30 μL/min. The excess reactive groups of the sensor chip were deactivated with an injection of 100 μL of ethanolamine (1.0M, from Biacore).
(§3) Forms of hepcidin used for the pre-complex were: correctly folded hepcidin as a positive control, the C1-C8, C3-C6 hepcidin variant (see Example 9), hepcidin 20 (N-terminally truncated, see Example 9) and linear hepcidin (Example 9). 1 nM solutions of antibody (2.41, 2.7, 43, and R9) were preincubated with 10 nM of each antigen at room temperature for several hours before run through the immobilized hepcidin surface. The binding signal obtained was proportional to the concentration of free antibody in solution at equilibrium.
(§4) Some antibodies require the five amino acids at the N-terminus of the molecule (e.g. Ab43 and to a lesser extent, R9).

[2] = target: T2, mature human hepcidin (SEQ ID NO: 9) (Homo sapiens, UniProt P81172); experiment: as above; details: interpretation of Table 6
T2 construct: made in house; host or cells: recombinant
T2 sequence (P81172 60-84): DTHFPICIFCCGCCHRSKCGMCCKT
Protocol: as §1, §2, §3, §4

[3] = target: T3, mature human hepcidin (SEQ ID NO: 9) (Homo sapiens, UniProt P81172); experiment: as above; details: interpretation of Table 6; remark: listed apart in the source
T3 construct: made in house; host or cells: recombinant
Protocol: as §1, §2, §3, §4

Sequence of rcyno hepcidin (as listed by the source): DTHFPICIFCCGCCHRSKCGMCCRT

B1: Antibody Ab43: murine anti-human hepcidin monoclonal antibody generated by viral immunization; CDRs SEQ ID NOs: 16-21 (antibody, V domains shown)
VH: QIQLVQSGPELKKPGETVKISCKASGYTFTTYGMSWVKQAPGKGLKWMGWINTYSGVPTYADDFKGRFAFSLETSASTAYLQINNLKNEDTATYFCASLWYYGRAFDYWGQGTTLTVSS
VL: NIVLTQSPASLAVSLGQRATISCRASESVDSYGNSFMHWYQQKPGQPPKLLIYLASNLESGVPARFSGSGSRTDFTLTIDPVEADDAATYYCQQNNEDRTFGGGTKLEIK
Rcyno hepcidin
  binding affinity to rcyno hepcidin: significant binding affinity
Synthetic human hepcidin
  EC50: 13.8 nM
[1]; 1 nM antibody preincubated with 10 nM C1-C8, C3-C6 hepcidin variant
  Binding to Hepcidin Surface, C1-C8 C3-C6: 25%
[1]; interpretation of Table 6
  Binding to Solution Epitopes, Linear Hepcidin: − (100% antibody binding to the hepcidin surface and therefore no inhibition by hepcidin in solution)
[2]
  Binding to Solution Epitopes, Folded Hepcidin: ++++ (0% antibody binding to the hepcidin surface and therefore 100% inhibition by hepcidin in solution)
[3]
  Binding to Solution Epitopes, Hepc20: − (100% antibody binding to the hepcidin surface and therefore no inhibition by hepcidin in solution)
